Results from the supplement of paper PMC9112550, “Optimization of the antimicrobial peptide Bac7 by deep mutational scanning” (BMC Biology, 2022).

Tested on: Escherichia coli TOP10
Test: shrunken log2 fold change of peptide-encoding DNA abundance (4.5 h post-induction vs induction); higher = less antimicrobial activity (less host growth inhibition)
Details: time post-induction: 4.5 h; library: site-saturation at positions 5, 18, 19, 20
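Also: peptides expressed intracellularly from a pBAD plasmid library in pooled LB shake-flask culture, induced with 0.3% L-arabinose, DNA abundance read by NGS, three biological replicates, DESeq2 with apeglm shrinkage.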

Row | Sequence | shrunken log2 fold change
1 | RRIRERPPRLPRPRPRPCMAPRP | -0.336
2 | RRIRMRPPRLPRPRPRPMPSPRP | 0.262
3 | RRIRRRPPRLPRPRPRPHADPRP | 0.573
4 | RRIRNRPPRLPRPRPRPQSCPRP | -0.00689
5 | RRIRPRPPRLPRPRPRPIAMPRP | 0.0793
6 | RRIRCRPPRLPRPRPRPVQGPRP | -0.0182
7 | RRIRSRPPRLPRPRPRPDNMPRP | -0.208
8 | RRIRNRPPRLPRPRPRPPTNPRP | 0.151
9 | RRIRQRPPRLPRPRPRPGAVPRP | 0.274
10 | RRIRGRPPRLPRPRPRPSHMPRP | -0.207
11 | RRIRLRPPRLPRPRPRPSPFPRP | -0.183
12 | RRIRSRPPRLPRPRPRPRIKPRP | -0.00375
13 | RRIRSRPPRLPRPRPRPVNDPRP | -0.389
14 | RRIRHRPPRLPRPRPRPPEGPRP | 0.168
15 | RRIRFRPPRLPRPRPRPEEIPRP | 0.0025
16 | RRIRSRPPRLPRPRPRPDNCPRP | -0.103
17 | RRIRYRPPRLPRPRPRPDVAPRP | 0.105
18 | RRIRHRPPRLPRPRPRPRRKPRP | 0.0896
19 | RRIRCRPPRLPRPRPRPPSMPRP | 0.0264
20 | RRIRMRPPRLPRPRPRPPPGPRP | 1.86
21 | RRIRWRPPRLPRPRPRPDDHPRP | 0.0959
22 | RRIRPRPPRLPRPRPRPVPWPRP | 0.548
23 | RRIRQRPPRLPRPRPRPKQIPRP | -0.103
24 | RRIRFRPPRLPRPRPRPMMYPRP | -0.104
25 | RRIRFRPPRLPRPRPRPCFKPRP | -0.426

Row | Sequence | shrunken log2 fold change
26 | RRIRWRPPRLPRPRPRPMFWPRP | 0.324
27 | RRIRFRPPRLPRPRPRPLHMPRP | -1.06
28 | RRIRRRPPRLPRPRPRPLNGPRP | 0.112
29 | RRIRLRPPRLPRPRPRPYIRPRP | -1.62
30 | RRIRNRPPRLPRPRPRPKANPRP | 0.177
31 | RRIRTRPPRLPRPRPRPAVAPRP | 0.422
32 | RRIRHRPPRLPRPRPRPRSSPRP | -0.00605
33 | RRIRNRPPRLPRPRPRPVEFPRP | -0.00441
34 | RRIRCRPPRLPRPRPRPLWVPRP | -0.1
35 | RRIRCRPPRLPRPRPRPNVGPRP | 0.0143
36 | RRIRLRPPRLPRPRPRPLGQPRP | 0.0405
37 | RRIRNRPPRLPRPRPRPFWGPRP | -0.157
38 | RRIRNRPPRLPRPRPRPWDIPRP | -0.00804
39 | RRIRWRPPRLPRPRPRPTECPRP | 0.0746
40 | RRIRYRPPRLPRPRPRPARPPRP | 0.943
41 | RRIRGRPPRLPRPRPRPEKNPRP | 0.921
42 | RRIRHRPPRLPRPRPRPISVPRP | -0.00149
43 | RRIRLRPPRLPRPRPRPYHTPRP | -0.484
44 | RRIRKRPPRLPRPRPRPIAKPRP | 0.141
45 | RRIRDRPPRLPRPRPRPMDWPRP | 0.0545
46 | RRIRCRPPRLPRPRPRPITIPRP | -0.261
47 | RRIRARPPRLPRPRPRPDTIPRP | 0.103
48 | RRIRLRPPRLPRPRPRPEPSPRP | 0.787
49 | RRIRHRPPRLPRPRPRPRPRPRP | 0.707
50 | RRIRQRPPRLPRPRPRPDPDPRP | -0.00136

Row | Sequence | shrunken log2 fold change
51 | RRIRRRPPRLPRPRPRPSPGPRP | 0.258
52 | RRIRSRPPRLPRPRPRPEQIPRP | 0.157
53 | RRIRKRPPRLPRPRPRPVAHPRP | 0.353
54 | RRIRPRPPRLPRPRPRPLMYPRP | -0.318
55 | RRIRCRPPRLPRPRPRPTGRPRP | 0.238
56 | RRIRVRPPRLPRPRPRPDVGPRP | -0.13
57 | RRIRFRPPRLPRPRPRPAVEPRP | 0.509
58 | RRIRLRPPRLPRPRPRPIVNPRP | -0.803
59 | RRIRDRPPRLPRPRPRPPNEPRP | -0.0231
60 | RRIRDRPPRLPRPRPRPQVTPRP | 0.0425
61 | RRIRIRPPRLPRPRPRPRPFPRP | -0.253
62 | RRIRIRPPRLPRPRPRPSEYPRP | -0.0435
63 | RRIRDRPPRLPRPRPRPQHKPRP | -0.217
64 | RRIRTRPPRLPRPRPRPKTEPRP | 0.0183
65 | RRIRERPPRLPRPRPRPRIAPRP | -0.246
66 | RRIRVRPPRLPRPRPRPGETPRP | -0.238
67 | RRIRIRPPRLPRPRPRPSHWPRP | -0.0355
68 | RRIRARPPRLPRPRPRPMKIPRP | 0.275
69 | RRIRVRPPRLPRPRPRPFQKPRP | 0.0406
70 | RRIRSRPPRLPRPRPRPMSYPRP | 0.0443
71 | RRIRDRPPRLPRPRPRPHDAPRP | 0.0126
72 | RRIRIRPPRLPRPRPRPRKLPRP | -0.529
73 | RRIRYRPPRLPRPRPRPLPGPRP | -0.139
74 | RRIRIRPPRLPRPRPRPGSNPRP | -0.515
75 | RRIRLRPPRLPRPRPRPFYAPRP | -0.279

Row | Sequence | shrunken log2 fold change
76 | RRIRARPPRLPRPRPRPIRTPRP | 0.0627
77 | RRIRRRPPRLPRPRPRPSGMPRP | -0.0586
78 | RRIRWRPPRLPRPRPRPVMNPRP | -0.133
79 | RRIRFRPPRLPRPRPRPQCPPRP | -0.225
80 | RRIRKRPPRLPRPRPRPCRKPRP | 0.0153
81 | RRIRFRPPRLPRPRPRPIAAPRP | 0.417
82 | RRIRFRPPRLPRPRPRPCWTPRP | -0.323
83 | RRIRKRPPRLPRPRPRPFSVPRP | 0.034
84 | RRIRMRPPRLPRPRPRPAYNPRP | -0.236
85 | RRIRGRPPRLPRPRPRPVDQPRP | 0.126
86 | RRIRQRPPRLPRPRPRPPDMPRP | -0.14
87 | RRIRFRPPRLPRPRPRPRLPPRP | 1.13
88 | RRIRWRPPRLPRPRPRPWHEPRP | 0.356
89 | RRIRHRPPRLPRPRPRPVGQPRP | 0.0139
90 | RRIRLRPPRLPRPRPRPNIWPRP | -0.0307
91 | RRIRSRPPRLPRPRPRPLHAPRP | 0.556
92 | RRIRVRPPRLPRPRPRPRHWPRP | 0.293
93 | RRIRTRPPRLPRPRPRPKWGPRP | 0.118
94 | RRIRRRPPRLPRPRPRPCSFPRP | -0.0171
95 | RRIRIRPPRLPRPRPRPTVAPRP | 0.334
96 | RRIRLRPPRLPRPRPRPPPFPRP | 0.791
97 | RRIRYRPPRLPRPRPRPYLDPRP | 0.0821
98 | RRIRCRPPRLPRPRPRPGDAPRP | 0.466
99 | RRIRYRPPRLPRPRPRPSRNPRP | -0.12
100 | RRIRVRPPRLPRPRPRPLVQPRP | -0.137

Row | Sequence | shrunken log2 fold change
101 | RRIRMRPPRLPRPRPRPRAGPRP | 1.08
102 | RRIRERPPRLPRPRPRPCCVPRP | -0.743
103 | RRIRGRPPRLPRPRPRPHVKPRP | -0.0605
104 | RRIRVRPPRLPRPRPRPHREPRP | -0.223
105 | RRIRIRPPRLPRPRPRPAGLPRP | -0.0628
106 | RRIRARPPRLPRPRPRPELSPRP | 0.0862
107 | RRIRYRPPRLPRPRPRPDTDPRP | -0.02
108 | RRIRDRPPRLPRPRPRPTYGPRP | -0.257
109 | RRIRCRPPRLPRPRPRPMQMPRP | 0.0279
110 | RRIRVRPPRLPRPRPRPKPAPRP | 0.431
111 | RRIRTRPPRLPRPRPRPNRMPRP | -0.331
112 | RRIRPRPPRLPRPRPRPWWGPRP | -0.0751
113 | RRIRKRPPRLPRPRPRPEADPRP | 0.00157
114 | RRIRWRPPRLPRPRPRPTQEPRP | 0.0333
115 | RRIRPRPPRLPRPRPRPDSWPRP | 0.392
116 | RRIRKRPPRLPRPRPRPECFPRP | 0.7
117 | RRIRARPPRLPRPRPRPGHYPRP | 0.186
118 | RRIRRRPPRLPRPRPRPVTNPRP | 0.266
119 | RRIRYRPPRLPRPRPRPWYRPRP | 0.729
120 | RRIRYRPPRLPRPRPRPPSVPRP | -0.209
121 | RRIRSRPPRLPRPRPRPYGFPRP | -0.85
122 | RRIRERPPRLPRPRPRPRRVPRP | 0.447
123 | RRIRARPPRLPRPRPRPTWDPRP | 0.604
124 | RRIRQRPPRLPRPRPRPKGEPRP | -0.031
125 | RRIRARPPRLPRPRPRPAVQPRP | -0.0122
